Laboratory results as given in EP4636087A1, “ANTI-GPA33 ANTIBODY AND UTILIZATION THEREOF” (Kagoshima University, priority 2022, dated 2024).

What was measured:
Wnt/β-catenin signal [1] = experiment: Wnt/β-catenin reporter EC50 in 293STF cells expressing GPA33; assay type: cell-based, human
Description: (§1) The Wnt/β-catenin signal promoting activity of the anti-GPA33 antibody scFv-Rspo fragment fusion recombinant prepared in Example 18 was measured as follows. ONE-Glo™ + Tox Luciferase Reporter and Cell Viability Assay (Promega) was used for the measurement. […] The cells into which each vector was introduced were cultured for 2 days in DMEM medium containing 10% FBS (Nichirei), and then the cells were collected and seeded at 100 µL/well on a CulturPlate-96 (PerkinElmer). The next day, 100 µL of (1) control medium or (2) medium containing recombinant Rspo1FL-Fc or various anti-GPA33 antibody scFv-Rspo fragment fusion recombinant proteins prepared in Example 10 (10-fold serial dilution between 10000 and 0.001 ng/mL, final concentration 5000 to […]) was added to each well. […] The fluorescence value was measured using a Microplate Reader SH-9000 (CORONA). 100 µL of ONE-Glo (trademark) Reagent (Promega) was added to the plate and incubated at room temperature for 3 min, after which the luminescence value was measured using a NIVO microplate reader (PerkinElmer). […] Samples with low activity for which the EC50 value could not be determined were marked NC. […]
(§2) The Wnt/β-catenin signal promoting activity of the anti-GPA33 antibody scFv-Rspo fragment-Fc conjugate R1CRD-hFcm-tCAP-G17 prepared in Example 19 was measured as shown in Example 20. […]

[2] = system: Mouse small intestinal organoids; experiment: Mouse small intestinal organoid culture; assay type: cell-based; design: key: those in which clear proliferation was observed are indicated with ○; those in which proliferation was observed but to a weak extent are indicated with △; those in which no proliferation was observed are indicated with ×
Description: Mouse small intestinal organoid culture using anti-GPA33 antibody scFv-Rspo fragment fusion (Example 18) and anti-GPA33 antibody scFv-Rspo fragment-Fc conjugate (Example 19) was performed as shown below. Mouse small intestinal organoids (VERITAS ST-70931) were maintenance cultured in ENR medium obtained by adding 2 µg/mL of the recombinant Rspo1FL-Fc prepared in Example 10 to EN medium (DMEM/F-12 containing penicillin/streptomycin, 10 mM HEPES, GlutaMAX, 1xN2, 1xB27 (all Gibco), 1 mM N-acetylcysteine (FUJIFILM Wako Pure Chemical), 50 ng/mL mouse EGF (Gibco), and 100 ng/mL mouse Noggin (PEPROTECH)), or ENR+WA medium (DMEM/F-12 containing penicillin/streptomycin, 10 mM HEPES, GlutaMAX, 1xN2, 1xB27 (all Gibco), […] N-acetylcysteine (FUJIFILM Wako Pure Chemical), 50 ng/mL mouse EGF (Gibco), and 100 ng/mL mouse Noggin (PEPROTECH), 10% Afamin/Wnt3a CM (MBL), and 500 nM A-83-01 (FUJIFILM Wako Pure Chemical)). Mouse small intestinal organoids were collected with Gentle Cell Dissociation Reagent (STEMCELL), resuspended in EN medium and Matrigel (Corning), and seeded onto 48-well plates. 250 µL of (1) EN medium, (2) EN medium containing recombinant Rspo1FL-Fc (20 ng/mL or 1 µg/mL) prepared in Example 10, or (3) EN medium containing anti-GPA33 antibody scFv-Rspo fragment fusion or anti-GPA33 antibody scFv-Rspo fragment-Fc conjugate ([…]) was added to each well. The medium was changed once every three days, and the cells were cultured for six days.
Comparing organoids on the first day (Day 1) and the fifth day (Day 5) after seeding, those in which clear proliferation was observed are indicated with ○, those in which proliferation was observed but to a weak extent are indicated with △, and those in which no proliferation was observed are indicated with ×. Samples that were not evaluated are indicated with ND.

Wnt/β-catenin signal [3] = experiment: Wnt/β-catenin reporter EC50 in 293STF cells expressing MOG; assay type: cell-based, human; conditions: NC = low activity, EC50 could not be determined (taken as >30 nM for the ratio)
Description: as §1, §2

B1: R1CRD-hFcm-tCAP-G17: conjugate of azidized R1CRD-Fcm and DBCO-G17 scFv by tCAP and click reaction (conjugate)
chain: SRGIKGKRQRRISAEGSQACAKGCELCSEVNGCLKCSPKLFILLERNDIRQVGVCLPSCPPGYFDARNPDMNKCIKCKIEHCEACFSHNFCTKCKEGLYLHKGRCYPACPEGSSAANGTMECSSPAEPKSADKTHTCPPCPAPEAEGAPSVFLFPPKPKDTLMISRTPEVTCVVVDVSHEDPEVKFNWYVDGVEVHNAKTKPREEQYNSTYRVVSVLTVLHQDWLNGKEYKCAVSNKALPASIEKTISKAKGQPREPQVYTLPPSREEMTKNQVSLTCLVKGFYPSDIAVEWESNGQPENNYKTTPPVLDSDGSFFLYSKLTVDKSRWQQGNVFSCSVMHEALHNHYTQKSLSLSPGK
scFv: QMQLVQSGGGLVKPGGSLRLSCAASGFTFSSYNMNWVRQAPGKGLEWVSSISSSGDFMYYADSVKGRFTISRDNAKNSLYLQMSSLRAEDTAVYYCAREGPGTPFDYWGQGTLVTVSSGGGGSGGGGSGSTGSAIQLTQSPSSLSASVGDRVTITCRASQSISSFLNWYQHKPGKAPKLLIYVASSLQSGVPSRFSGSGSGTDFTLTISSLQPEDFATYYCQQSHNTPYTFGQGTKLEIKEPRTPRPCLVPRGSHHHHHHGA
EC50 (Wnt/β-catenin signal [1]; 293STF cells expressing GPA33, Afamin/Wnt3a 883 ng/mL, 18 hr): 0.085 nM | EC50(MOG)/ EC50(GPA33) (Wnt/β-catenin signal [1]; ratio, NC assumed >30 nM): 47.53 | organoid proliferation (Day 1 vs Day 5) ([2]; 0.2 ng/ml): × | organoid proliferation (Day 1 vs Day 5) ([2]; 0.8 ng/ml): × | organoid proliferation (Day 1 vs Day 5) ([2]; 1.4 ng/ml): × | organoid proliferation (Day 1 vs Day 5) ([2]; 2 ng/ml): × | organoid proliferation (Day 1 vs Day 5) ([2]; 20 ng/ml): Δ | organoid proliferation (Day 1 vs Day 5) ([2]; 100 ng/ml (conjugate section head, or cells marked *)): ○ | organoid proliferation (Day 1 vs Day 5) ([2]; 1000 ng/ml): ○ | EC50 (Wnt/β-catenin signal [3]): 4.04 nM
